# Data published in paper PMC4822050.
# T1: SRA-Spacer (human, UniProt Q96T88 414-674)
# T1 sequence: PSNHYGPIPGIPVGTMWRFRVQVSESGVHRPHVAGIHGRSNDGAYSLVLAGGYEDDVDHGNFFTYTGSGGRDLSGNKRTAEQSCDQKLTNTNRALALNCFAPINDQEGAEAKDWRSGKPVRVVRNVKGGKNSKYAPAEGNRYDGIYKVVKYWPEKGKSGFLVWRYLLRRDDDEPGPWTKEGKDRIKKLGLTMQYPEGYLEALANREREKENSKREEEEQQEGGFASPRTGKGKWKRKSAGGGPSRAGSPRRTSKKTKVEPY
# T2: UHRF1 deltaTTD (human, UniProt Q96T88 1-793, del134-285)
# T2 sequence: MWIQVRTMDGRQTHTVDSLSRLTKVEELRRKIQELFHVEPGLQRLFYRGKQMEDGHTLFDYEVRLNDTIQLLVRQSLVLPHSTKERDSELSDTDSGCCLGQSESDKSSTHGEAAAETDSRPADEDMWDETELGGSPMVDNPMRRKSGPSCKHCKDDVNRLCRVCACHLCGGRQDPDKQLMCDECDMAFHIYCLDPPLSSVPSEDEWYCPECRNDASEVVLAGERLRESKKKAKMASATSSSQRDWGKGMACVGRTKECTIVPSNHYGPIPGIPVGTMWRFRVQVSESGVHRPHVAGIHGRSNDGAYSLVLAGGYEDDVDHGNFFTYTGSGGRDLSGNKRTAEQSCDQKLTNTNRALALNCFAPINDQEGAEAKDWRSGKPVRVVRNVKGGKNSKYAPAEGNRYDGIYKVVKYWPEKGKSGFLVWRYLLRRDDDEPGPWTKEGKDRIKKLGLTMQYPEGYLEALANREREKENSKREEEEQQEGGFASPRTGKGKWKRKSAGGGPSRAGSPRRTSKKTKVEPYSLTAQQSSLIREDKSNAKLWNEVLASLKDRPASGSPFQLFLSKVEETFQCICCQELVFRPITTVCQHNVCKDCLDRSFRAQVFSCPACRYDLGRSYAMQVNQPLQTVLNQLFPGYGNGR
# T3: SRA (human, UniProt Q96T88 414-617)
# T3 sequence: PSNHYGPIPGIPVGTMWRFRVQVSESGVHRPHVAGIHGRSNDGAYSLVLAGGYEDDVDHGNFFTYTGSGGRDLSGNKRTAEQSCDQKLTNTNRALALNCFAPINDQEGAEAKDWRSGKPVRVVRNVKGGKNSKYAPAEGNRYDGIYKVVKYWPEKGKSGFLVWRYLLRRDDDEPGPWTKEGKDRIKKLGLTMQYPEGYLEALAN
# T4: UHRF1 deltaSRA (human, UniProt Q96T88 1-793, del414-617)
# T4 sequence: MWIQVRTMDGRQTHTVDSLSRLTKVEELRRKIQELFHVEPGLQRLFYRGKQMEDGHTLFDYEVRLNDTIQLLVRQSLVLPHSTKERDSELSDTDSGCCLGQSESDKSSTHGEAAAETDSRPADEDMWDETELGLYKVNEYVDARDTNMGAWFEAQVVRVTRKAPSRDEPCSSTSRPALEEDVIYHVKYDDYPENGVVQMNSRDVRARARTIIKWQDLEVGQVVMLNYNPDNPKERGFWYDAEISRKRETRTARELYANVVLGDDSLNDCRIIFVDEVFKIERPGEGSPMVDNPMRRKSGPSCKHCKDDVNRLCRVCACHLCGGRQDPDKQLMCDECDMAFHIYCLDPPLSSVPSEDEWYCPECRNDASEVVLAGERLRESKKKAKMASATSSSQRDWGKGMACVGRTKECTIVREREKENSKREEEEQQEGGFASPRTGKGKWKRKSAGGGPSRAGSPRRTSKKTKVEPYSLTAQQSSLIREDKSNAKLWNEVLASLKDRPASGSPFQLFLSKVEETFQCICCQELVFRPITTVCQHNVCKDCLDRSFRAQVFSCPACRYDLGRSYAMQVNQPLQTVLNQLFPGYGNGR
# How the values were obtained:
# SRA-Spacer [1] = biological target: T1, SRA-Spacer; test: FP; ITC: 10 mM HEPES pH 8.0, 100 mM NaCl, 18 C; EMSA: 20 mM HEPES pH 7.5, 100 mM NaCl, 8% glycerol, 1 mM DTT, on ice; pull-down: 20 mM HEPES-NaOH pH 8.0, 100 mM NaC
# UHRF1 deltaTTD = biological target: T2, UHRF1 deltaTTD; test: as above
# SRA-Spacer [2] = biological target: T1, SRA-Spacer; test: FP; 50 mM NaCl; ITC: 10 mM HEPES pH 8.0, 100 mM NaCl, 18 C; EMSA: 20 mM HEPES pH 7.5, 100 mM NaCl, 8% glycerol, 1 mM DTT, on ice; pull-down: 20 mM HEPES-NaOH pH 8.0, 100 mM NaC
# SRA = biological target: T3, SRA; test: as above
# SRA-Spacer [3] = biological target: T1, SRA-Spacer; test: FP; 150 mM NaCl; ITC: 10 mM HEPES pH 8.0, 100 mM NaCl, 18 C; EMSA: 20 mM HEPES pH 7.5, 100 mM NaCl, 8% glycerol, 1 mM DTT, on ice; pull-down: 20 mM HEPES-NaOH pH 8.0, 100 mM NaC
# UHRF1 deltaSRA = biological target: T4, UHRF1 deltaSRA; test: FP; not detectable; ITC: 10 mM HEPES pH 8.0, 100 mM NaCl, 18 C; EMSA: 20 mM HEPES pH 7.5, 100 mM NaCl, 8% glycerol, 1 mM DTT, on ice; pull-down: 20 mM HEPES-NaOH pH 8.0, 100 mM NaC
# SRA-Spacer [4] = biological target: T1, SRA-Spacer; test: FP; DNA length series; ITC: 10 mM HEPES pH 8.0, 100 mM NaCl, 18 C; EMSA: 20 mM HEPES pH 7.5, 100 mM NaCl, 8% glycerol, 1 mM DTT, on ice; pull-down: 20 mM HEPES-NaOH pH 8.0, 100 mM NaC
binder,measurement,setting,value
"FAM-12bp-HM-DNA (dsDNA, 5-methyl-dC at position 6 of strand 2 (GTCAGXGCATGG)) DNA 1: CCATGCGCTGAC DNA 2: GTCAGCGCATGG",Kd,SRA-Spacer [1],490 ± 80 nM
same,Kd,UHRF1 deltaTTD,490 ± 80 nM
same,Kd,SRA-Spacer [2],24 ± 3.7 nM
same,Kd,SRA,150 ± 18 nM
same,Kd,SRA-Spacer [3],580 ± 98 nM
same,binding result,UHRF1 deltaSRA,no binding
same,Kd,SRA-Spacer [4],340 ± 90 nM
